Measured values taken from the MegaScale stability set (Tsuboyama et al. 2023).

B1: 6YSE (parent)
chain: HERALMVNRLQKLTRMLRVHPDPKWKQEQQELIKRLK
B2: 2K2A (parent)
chain: ELREAFRLYDKEGNGYISTDVMREILAELDETLSSEDLDAMIDEIDADGSGTVDFEEFMGVMT

Variants of: B1
Test: folding stability dG (cDNA display proteolysis); higher = more stable
Conditions: PBS, room temperature

Folding stability dG [kcal/mol] of substitutions, site by site:
R18: D 0.512 | I 0.881 | M 1.29 | K 1.36 | Y 0.492 | S 0.989 | L 1.2 | A 1.45 | E 0.715 | Q 1.19 | N 0.669 | F 0.738 | T 0.657 | W 0.417 | G 0.577 | H 0.59 | V 0.181
P21: W 2.02 | Q 1.36 | R 0.878 | L 0.688 | K 1.04 | D 1.37 | C 0.966 | M 1.13 | E 1.09 | A 1.18 | V 0.805 | T 0.908 | N 1.51 | Y 2.16 | F 2.15 | H 1.57 | I 0.664 | G 0.843
H1: P 1.31 | A 1.55 | W 1.75 | E 1.26 | D 1.53 | K 1.42 | M 1.68 | Q 1.38 | T 1.45 | Y 1.59 | R 1.63 | I 1.34 | L 1.36 | G 1.05 | F 1.59 | N 1.45 | C 2.12 | S 1.5
T14: G 0.779 | Y 1.15 | S 1.03 | L 1.13 | E 1.19 | M 1.21 | W 0.988 | F 0.771 | A 1.32 | R 1.3 | V 0.832 | I 1.35 | K 1.34 | Q 0.979 | H 0.917 | N 1.39 | D 0.505
L17: Q -0.895 | M 0.852 | R -0.68 | S -0.127 | C -0.743 | N 0.006 | I 1.09 | V -0.191 | Y 0.234 | A -0.037
E2: F 1.27 | N 1.22 | I 1.4 | H 1.05 | M 1.46 | K 1.15 | A 1.14 | R 0.9 | P 0.758 | D 1.16 | S 1.09 | Q 1.25 | Y 1.32 | W 1.65 | L 1.59 | G 0.782 | V 1.23
R15: L 1.31 | F 0.829 | H 1.12 | G 0.365 | V 0.95 | E 1.42 | N 1 | I 1.14 | W 0.914 | D 1.01 | Q 1.48 | M 1.33 | A 1.32 | T 0.631 | Y 0.918
L13: I 1.07 | V 0.655 | C -0.58
L10: M -0.327 | Y 0.292 | W -0.405 | V 0.163 | I 0.954 | F -0.248
D22: F 1.07 | E 0.749 | A 0.299
L5: G 1.16 | W 2.06 | N 1.11 | V 1.29 | D 1 | S 1.48 | A 1.6 | K 1.6 | P -0.071 | M 1.83 | R 1.79 | T 1.27 | I 1.41 | F 1.19 | H 1.61 | Y 1.23 | Q 1.61
V7: L 2.05 | H 1.09 | P -0.01 | S 0.086 | T 0.591 | K 1.05 | F 1.42 | G 0.569 | D -0.144 | C 1.96 | W 1.96 | Y 1.67 | Q 1.03 | I 1.78 | E 1.11 | R 1.55 | A 0.946 | M 1.59 | N 0.506
A4: N 1.31 | V 1.23 | P 0.222 | W 1.7 | I 1.53 | Q 1.63 | Y 1.4 | T 1.46 | D 1.35 | K 1.68 | H 1.35 | F 1.12 | L 1.49 | M 1.66 | S 1.06 | G 0.783 | E 1.35
Q11: E 1.08 | K 2.12 | A 1.54 | S 1.1 | I 2.12 | G 0.69 | L 1.69 | R 2.14 | H 1.38 | M 1.73 | C 2.24 | Y 1.41 | D 0.958 | T 1.09 | F 1.23 | W 1.5 | N 1.34 | V 1.48
V19: F 1.51 | Q 1.41 | L 1.48 | T 1.37 | I 1.51 | W 1.21 | Y 1.57 | H 1.38 | G 1.34 | D 1.13 | R 1.55 | K 1.55 | E 1.19 | S 1.23 | N 1.44 | A 1.21 | M 1.37
M16: Y 0.489 | L 1.35 | H -0.229 | R 0.261 | I 0.699 | W 1.26 | F 0.018 | A 0.312 | S -0.421 | K 0.733 | Q -0.015
R9: Q 0.621 | V -0.415 | L 0.938 | A -0.164 | C 1.19 | K 0.551 | E 0.136 | H 0.157 | G -0.612 | S -0.602 | Y 0.605 | I 0.734 | T -0.04 | F 0.77 | W 0.91 | M 0.818
K12: G -0.272 | Y 2.31 | I 1.43 | L 1.53 | V 1.43 | D 1 | Q 1.71 | N 1.01 | H 1.37 | T 1.3 | M 1.49 | F 2.26 | R 1.3 | W 2.78 | S 0.811 | A 1.36
M6: I 1.8 | F -0.384 | Y -0.185 | Q 0.35 | K -0.045 | S 0.112 | T 0.188 | H 0.07 | G -0.19 | E 0.023 | N -0.861 | A 0.574 | L 1.46 | V 0.718 | D 0.383 | R 0.36 | W 0.832
H20: A 0.952 | M 1.06 | L 0.97 | Y 1.47 | E 0.232 | V 0.774 | K 1.57 | D 1.3 | G -0.186 | R 1.19 | F 1.39 | S 1.26 | I 1.06 | W 1.39 | T 1.13 | Q 0.946 | N 1.26
N8: Y 1.38 | I 1.84 | M 1.67 | R 2.01 | W 1.34 | S 1.67 | V 1.77 | G 1.23 | Q 2.12 | H 1.47 | D 1.45 | T 1.92 | K 2.4 | E 1.56 | L 1.75 | F 1.21
R3: N 0.899 | Y 1.69 | T 1.06 | M 0.994 | K 1.03 | G 0.193 | S 0.487 | A 0.434 | E 0.651 | W 1.59 | F 1.66 | D 0.418 | Q 0.786 | V 1.34 | H 1.18 | I 1.63 | L 1.61

Variants of: B2
Test: as above
Conditions: PBS, room temperature

Folding stability dG [kcal/mol] of substitutions, site by site:
T63: N 1.82 | K 1.97 | Y 1.58 | V 1.82 | S 1.88 | L 2.25 | W 1.33 | R 1.94 | P 1 | Q 1.83 | I 2.07 | M 2.17
